Results on 21 sequences are retold here after the DeepSol protein solubility set.

This data set is described as follows: soluble on expression in E. coli; label from the status in PepcDB or PDB records.
For the sequence “MNRLKNMSKYSDAKELASLTLGKKTEYANQYDPSLLQPVPRSLNRNDLHLSATLPFQGCDIWTLYELSWLNQKGLPQVAIGEVSIPATSANLIESKSFKLYLNSYNQTRFASWDEVQTRLVHDLSACAGETVTVNVKSLNEYTAEPIVTMQGECIDDQDIEIANYEFDDALLQGAAQGEEVSEVLHSHLLKSNCLITNQPDWGSVEIAYHGAKMNREALLRYLVSFREHNEFHEQCVERIFTDIMRYCQPQSLTVYARYTRRGGLDINPFRSSHQSAPNHNQRMARQ”, the “soluble on expression in E. coli” value is given as “soluble”. The same measure for “MVFRKYRAVKQWGKMDTRIFKEIYNSRNKRKMPAFEVPDAVKALGVPVFEPNEIFQLSNRKNLVEQAAKEHMENELKFTEPPQQHPLQKSHPAYIFEAAEPMSDGIAQAAVLTRSVVATGGLPDTILLNSAAKLEIDEEMVKDAILHGERYNPSLEKLPARFDPVMFWIRHPRLHGTPVIKKNNIILNNLLRHVVLGGLRTQALKQNFQFSTKILQKNSNFLWKIQKNLIFSDFRLKLKNFCRVNRDSPLSVYVSGGQYFSKNALVLRAQPHLTVQSADSTVTMPWAGPIDVKAVWRIFTKMFSFSSFSYQNSSIFHQKLSKIFSAEPLPDIYPISPVIDFSMDTIYNDDVLLTRRSQQQKTHIHSILWSREQDQKYPWTSEQNMANAILTTYAAAVAEATRNGATTELEKPLLVRGVQLVNGRLDLVAMQLNTLKPTSEAGNNDEKNIVWIEKGLRLYKPTPYYEQMDTVEKLDMTVFHKFVALMLGFGAPHAH”: “not soluble”. The value for “MYVALWYKHGKPIHGRSWNNGGVVECSFPYKEAELTTKQQLEGQIQVLQYVGDHNNQGFWYEWIKYKDRIEKIDDKHQLVRCGDSFPIFWKRKEGNLLGYVDNKTEEGWFSFNGKVIKQVGPQLNDMYIITRNCVGGPPYCECENCPKLPPPPPIPPPGPPPPRVMHDEWIDIREGDPWPTRKLVKALDKSLDTLPGVSADQYVALWYMQGEPVMGRVWNEGGKVAANFSWFNNEYCKNVGSIQLLVRLGPHVVGYEYGWIPFPEAANFDAGKIWKPVHVNNHKGDISVGVVNLPGGKQILAKVDVRNESYGYGYQGKEHSARGPACASSVTVLCRKALPGYQLDG” was “not soluble”. “MEQCNERPKVSVIIPVYNTCNYVQEALESICQQTLEELEIIVIDDGSTDCSRAIVEEIAIKDTRIQVYKQSNQGLSITRNQGLKFSTGEYIYFMDSDDFLEPDALELCYRKCTKEALDFVFFDAETFTIEPNIPESSFDYQRTLDLPEKICSGIDMLKTQLKTYKFKSSVCLNLFHREFICEERLSFYPGILHEDQLFMIQAYLHASKTGFIRRSFFHRRIRTNSIMTKKFTWKNMEGYLTVTNELLRELPIYPKTYHHTIFFFLRQMLDAAVWQAHTLSLPQRIKLFSLCLKYYRPYVTMRTLMVLLLKTSIHPRQ”: the “soluble on expression in E. coli” value is recorded as “soluble”.

As for “MPVTLSFGNRHNYEINHSRLARLMSPDKEEALYMGVWDRFKDCFRTHKKQEVLEVLYTLIHGCERENQAELNVDITGMEKIHAFTQLKEYANPSQQDRFVMRFDMNQTQVLFEIDGKVIDKCNLHRLLNVSENCIFKVMEEDEEELFLKICIKYGEKISRYPELLEGFANKLKDAVNEDDDVKDEVYKLMRSGEDRKMECVEWNGTLTEEEKNKLRCLQMGSFNITTQFFKIGYWELEGEVLFDMVHPTLSYLLQAYKPSLSSDLIETNTMLFSDVLNKDYDDYQNNKREIDAILRRIYRSHNNTLFISEKSSCRNMLI”, the “soluble on expression in E. coli” value is listed as “not soluble”. The value for “MGSDKIHHHHHHMEQCNERPKVSVIIPVYNTCNYVQEALESICQQTLEELEIIVIDDGSTDCSRAIVEEIAIKDTRIQVYKQSNQGLSITRNQGLKFSTGEYIYFMDSDDFLEPDALELCYRKCTKEALDFVFFDAETFTIEPNIPESSFDYQRTLDLPEKICSGIDMLKTQLKTYKFKSSVCLNLFHREFICEERLSFYPGILHEDQLFMIQAYLHASKTGFIRRSFFHRRIRTNSIMTKKFTWKNMEGYLTVTNELLRELPIYPKTYHHTIFFFLRQMLDAAVWQAHTLSLPQRIKLFSLCLKYYRPYVTMRTLMVLLLKTSIHPRQ” was “not soluble”; that for “MAPEAQVSVQPNFQQDKFLGRWFSAGLASNSSWLREKKAALSMCKSVVAPATDGGLNLTSTFLRKNQCETRTMLLQPAGSLGSYSYRSPHWGSTYSVSVVETDYDQYALLYSQGSKGPGEDFRMATLYSRTQTPRAELKEKFTAFCKAQGFTEDTIVFLPQTDKCMTEQAHHHHHH” was “soluble”; that for “MGKRMTFDTAKSRFQEKFPHLELLEFSGIYKPSSVRCPTHGVVQLLYYDTAIKSKYGCPECGKLKMKENTPPQNQKPVSILDTATGETLTFPSVQAAAKALNTPYGSIRTKLDGRSNPDNLVCNRYKVLL” was “soluble”. “WLSGYAGPADGTQQPDAPEHAVAREALVDLCRRRHFLSGTPQQLSTAALLSGCHARFGPLGVELRKNLASQWWSSMVVFREQVFAVDSLHQEPGSSQPRDSAFRLVSPESIREILQDREPSKEQLVAFLENLLKTSGKLRATLLHGALEHYVNCLDLVNRKLPFGLAQIGVCFHPVSNSNQTPSSVTRVGEKTEASLVWFTPTRTSSQWLDFWLRHRLLWWRKFAMSPSNFSSADCQDELGRKGSKLYYSFPWGKEPIETLWNLGDQELLHTYPGNVSTIQGRDGRKNVVPCVLSVSGDVDLGTLAYLYDSFQLAENSFARKKSLQRKVLKLHPCLAPIKVALDVGKGPTVELRQVCQGLLNELLENGISVWPGYSETVHSSLEQLHSKYDEMSVLFSVLVTETTLENGLIQLRSRDTTMKEMMHISKLRDFLVKYLASASNVAAALDHHHHHH”: the “soluble on expression in E. coli” value is listed as “soluble”. Take “MYCIGCGAKIQTEAKNALGFLPAGALKKKIAERDQMEAVQAGDEGSEASIKTEDLYCQRCFRLRHYNEIAPTSLTDADFLRLLKEIGQHDALIVNVVDIFDFNGSLIPNLHKLTGGNDLLMVANKRDVLPKSLKVGKLTAWLREQAASRSLKPKDILVTSAQNKDDVAELMEAIEYYRRGRDVYVVGVTNVGKSTLINAIIKSASGSEDVITTSRFPGTTLDKIEIPLDEDSALIDTPGIIHRGQIAHYLEPEDLKYVSPRKEIKPKTYQLDPEQTLFFGGLARFDFISGERQGMTAYFDNEINVHRTKLEGATEFYEKHKGELLAPALVGAKLVRREFKITDKSDIVFSGLGWVRVPQKAVVAAWVPEGVDVVVRKALIGLEHHHHHH”: the “soluble on expression in E. coli” value was “soluble”. For “MTLELLQAQAQNCTACRLMEGRTRVVFGEGNPDAKLMIVGEGPGEEEDKTGRPFVGKAGQLLNRILEAAGIPREEVYITNIVKCRPPQNRAPLPDEAKICTDKWLLKQIELIAPQIIVPLGAVAAEFFLGEKVSITKVRGKWYEWHGIKVFPMFHPAYLLRNPSRAPGSPKHLTWLDIQEVKRALDALPPKERRPVKAVSQEPLF”, the “soluble on expression in E. coli” value is “soluble”. The same measure for “MSLAGSWETYTMKVPSEKNLPTTKVVLKMPKDVEFQQYEPIPGWKVSTQKHDDKSVSVTWEATDGGIQEGQFQQFTFVAKNPDKAEEAAWDAYQYYKDGSIVEWTGDEDADTPHSITNITSAKQVTDEHGATKTEDDSENSGSSALDITAMVLSAAAIILSVAALVKKKRAEGHHHHHH”: “soluble”; for “MAKERALTLEALRVMDAIDRRGSFAAAADELGRVPSALSYTMQKLEEELDVVLFDRSGHRTKFTNVGRMLLERGRVLLEAADKLTTDAEALARGWETHLTIVTEALVPTPAFFPLIDKLAAKANTQLAIITEVLAGAWERLEQGRADIVIAPDMHFRSSSEINSRKLYTLMNVYVAAPDHPIHQEPEPLSEVTRVKYRGIAVADTARERPVLTVQLLDKQPRLTVSTIEDKRQALLAGLGVATMPYPMVEKDIAEGRLRVVSPESTSEIDIIMAWRRDSMGEAKSWCLREIPKLFNGK”: “soluble”; for “MKIFENIEDVKAIRKKTGLNQIDFWGKVGVTQSGGSRYETGRKMPKPVRELLRLVHIECIDLAKVNKKDMEIAALLKKHHPDLYAELSKQTKSERKKQS”: “not soluble”. The same measure for “MPSTSMIEDRSEIERRRFEYLDHPADIQLHSWGSTMEEAFEACLVSMFGYMTDLAKVDEMYEFYWKASGDSLDGLLFQFLDEALNSFHAEPCFVAKRVEILRFDKKKFEIEFRGWGESFDTSKHETEADIKSPTYSNMQINEKPERCDIYVIVDI”: “not soluble”; for “WNHDEEARGSVRWRTLFDTALTSENVILYAQSVHSISDATHKKALHEELTCRIRDPENGIVKASRFISAIRQVGYEAQMDRAVLHKFLKDFKENFDSSKNYALNLNVTPFSSREYFKWFRDELLQLSREQRKCLNFEFVEAQFVRHLDFMRPVAKMLAGLGCHLMVGQAGRTIVSTHYLKEVDIRYLKLHRSLVAKIDQRHENQLFVRSMLGAAANSKTKIIAVGIENQQELNTLLELGVYGGQGRYFSAE”: “not soluble”. The same measure for “MSKMKRRTNKPRATESANSSTKSSVLDEPTLVERKQQKKQILKFVQRTLEKMPQGLRAEFVGMRRFNDFEKMKAFKEAQEAGKNRYKDVGCLDNNRVKLEGPWPHEYIHANYVATPTNPKRFICTQAPLEKTCADFWYMCYQDKVEYIFMLCNLLEKGARKCFEYFPSKKGDVMDFEEGGQKISVKCESSVTYSFRSDAKANVTATEIVIEGPGEKTRKTTHYHWNDWPDRGVPAADMAVLELLENARPSKGPIVVHCSAGIGRTGSVVMLEYIMDQLLAGQIIDDGEKILVKIREQRNNSIQTDAQYLFVHQVILNYFRKKKLMEETGVQEAYDAFLEQYKKVVV”: “soluble”. Take “MGHHHHHHSHIGSFPLPKGITREWVERNLHTKEYEEMVQRAFLMKAKVLDVPTYPQFRDMIEMFMQPIKANQVEPYLIDERKAVIPELEYVEKMSVEAVRVCITGPFELYYREFGGVIYEDILLNLAESVRRFVENAAKHENVVCISIDEPSLGIAPDLQPDEELLQKALDYKVKQDVQIHLHEPLYYEKILETSVDVIGIECAKKPENMDFIDAEAVASAEKKLRIGVARSDIDGIIAEFNALHGVNAWGNEELISLAIDEIEPVEKIAERISKAKERFGDLLAYIGPDCGLFSFPSQELALQLLENVRKAVRE”: the “soluble on expression in E. coli” value is “not soluble”. The value for “GMNNLYHLKVRCSSLHKIIGEPKSKADKEAGKLTDTAKSAVREMAKFDLFGYNAFEGNKYTQKGNELEEQAIKLSGVTRGLALKKNTERRENEFITGECDIYVPSRKLIIDTKCSWDIGSHPFFTDEAQEKAKKAGYDIQMQGYMWLWDCDQAQIDFVLFPTPLNLISAYDSDFKLIDLVEQIPQIRRITTVIIQRDNELIDKIKERVSAAQKYYDQLISEMS” was “soluble”. Consider “KIIHIDCDCFYAALEMRDDPSLRGKALAVGGSPDKRGVVATCSYEARAYGVRSAMAMRTALKLCPDLLVVRPRFDVYRAVSKQIHAIFRDYTDLIEPLSLDEAYLDVSASPHFAGSATRIAQDIRRRVAEELHITVSAGVAPNKFLAKIASDWRKPDGLFVITPEQVDGFVAELPVAKLHGVGKVTAERLARMGIRTCADLRQGSKLSLVREFGSFGERLWGLAHGIDERPVEVDSRRQSVSVECTFDRDLPDLAACLEELPTLLEELDGRLQRLDGSYRPDKPFVKLKFHDFTQTTVEQSGAGRDLESYRQLLGQAFARGNRPVRLIGVGVRLLDLQGAHEQLR”, for which the “soluble on expression in E. coli” value is recorded as “not soluble”. With “MCMSWSKVKYFFFDTPEEKEAAQYSYEKEQTDMKKQQDPPEQQDVTFPKAQPKQNVVSIETAKQSSKVVLLEPRTYSEAQGIADHLKGRRAVVINLQRMSTDQAVRIVDFLSGTVYAIGGDIQKIGPKTFMTPENVDIVGAISELFGEEEDTNIKRWLEHHHHHH”, the “soluble on expression in E. coli” value is reported as “soluble”.
